Results published in US20090081197A1 (PALATIN TECHNOLOGIES, published 2009).
Read-outs that look alike come from different tables or passages of the source. Starred links: 1 amine or outer side, 2 acyl side, 3 side chain; linkers in the order of their positions; H or OH if unused. Positions of bridges follow the written chain, without caps; N, C: chain ends. Non-standard residues stand in square brackets, D forms with d. No end group written: not given here. Ser(Bzl) = O-benzyl-serine, O=C([C@H](COCc1ccccc1)N[*:1])[*:2]; dPhe(4-Cl) = N[C@H](Cc1ccc(Cl)cc1)C(=O)O; 1Nal = N[C@@H](Cc1cccc2ccccc12)C(=O)O; 2Nal = N[C@@H](Cc1ccc2ccccc2c1)C(=O)O; d2Nal = N[C@H](Cc1ccc2ccccc2c1)C(=O)O; Nle = CCCC[C@H](N)C(=O)O; Ahp = NCCCCCCC(=O)O

Assays:
[1] = target: T1, human melanocortin 4 receptor (human, UniProt P32245 1-332); assay: radioligand competition, [I125]-NDP-α-MSH, hMC4-R membranes
T1 construct: whole, on cells; cAMP assays used whole cells; also called hMC4-R; MC4-R

[2] = target: T2, human melanocortin 3 receptor (human, UniProt P41968 1-323); assay: radioligand competition, [I125]-NDP-α-MSH, hMC3-R membranes
T2 construct: whole, on cells; also called hMC3-R; MC3-R

human MC1-R = target: T3, human MC1-R (human, UniProt Q01726 1-317); assay: radioligand competition, NDP-α-MSH, human MC1-R, normal system
T3 construct: whole, on cells; Used in separate experiments for Ki with NDP-α-MSH; the source of the membranes is not described; also called hMC1-R

[3] = target: T1, human melanocortin 4 receptor; assay: cell-based or functional assay
[4] = target: T1, human melanocortin 4 receptor; assay: cell-based or functional assay; remark: listed apart in the source
[5] = target: T4, MC1-R of B-16 mouse melanoma cells (mouse, UniProt Q01727 1-315); assay: radioligand competition, [I125]-NDP-α-MSH, B-16 membranes
T4 construct: whole, on cells; also called B16-F10 (MC1-R)

[6] = target: T2, human melanocortin 3 receptor; assay: radioligand competition, [I125]-NDP-α-MSH, hMC3-R membranes; remark: listed apart in the source
[7] = target: T1, human melanocortin 4 receptor; assay: radioligand competition, [I125]-NDP-α-MSH, hMC4-R membranes; remark: listed apart in the source
[8] = target: T4, MC1-R of B-16 mouse melanoma cells; assay: radioligand competition, [I125]-NDP-α-MSH, B-16 membranes; remark: listed apart in the source
[9] = target: T5, human melanocortin 5 receptor (human, UniProt P33032 1-325); assay: radioligand competition, [I125]-NDP-α-MSH, hMC5-R membranes
T5 construct: whole, on cells; also called hMC5-R; MC5-R

[10] = target: T1, human melanocortin 4 receptor; assay: cell-based or functional assay; remark: listed apart in the source
[11] = target: T4, MC1-R of B-16 mouse melanoma cells; assay: radioligand competition, [I125]-NDP-α-MSH, B-16 membranes; remark: listed apart in the source
[12] = target: T2, human melanocortin 3 receptor; assay: radioligand competition, [I125]-NDP-α-MSH, hMC3-R membranes; remark: listed apart in the source
[13] = target: T1, human melanocortin 4 receptor; assay: radioligand competition, [I125]-NDP-α-MSH, hMC4-R membranes; remark: listed apart in the source
[14] = target: T1, human melanocortin 4 receptor; assay: cell-based or functional assay; remark: listed apart in the source
[15] = target: T5, human melanocortin 5 receptor; assay: radioligand competition, [I125]-NDP-α-MSH, hMC5-R membranes; remark: listed apart in the source
[16] = target: T4, MC1-R of B-16 mouse melanoma cells; assay: radioligand competition, [I125]-NDP-α-MSH, B-16 membranes; remark: listed apart in the source
[17] = target: T1, human melanocortin 4 receptor; assay: cell-based or functional assay; remark: listed apart in the source
[18] = target: T1, human melanocortin 4 receptor; assay: radioligand competition, [I125]-NDP-α-MSH, hMC4-R membranes; remark: listed apart in the source
[19] = target: T2, human melanocortin 3 receptor; assay: radioligand competition, [I125]-NDP-α-MSH, hMC3-R membranes; remark: listed apart in the source
[20] = target: T5, human melanocortin 5 receptor; assay: radioligand competition, [I125]-NDP-α-MSH, hMC5-R membranes; remark: listed apart in the source
[21] = target: T5, human melanocortin 5 receptor; assay: as above; remark: listed apart in the source
[22] = target: T4, MC1-R of B-16 mouse melanoma cells; assay: radioligand competition, [I125]-NDP-α-MSH, B-16 membranes; remark: listed apart in the source
[23] = target: T2, human melanocortin 3 receptor; assay: radioligand competition, [I125]-NDP-α-MSH, hMC3-R membranes; remark: listed apart in the source
[24] = target: T1, human melanocortin 4 receptor; assay: cell-based or functional assay; remark: listed apart in the source
[25] = target: T1, human melanocortin 4 receptor; assay: radioligand competition, [I125]-NDP-α-MSH, hMC4-R membranes; remark: listed apart in the source
[26] = target: T1, human melanocortin 4 receptor; assay: as above; remark: listed apart in the source
[27] = target: T2, human melanocortin 3 receptor; assay: radioligand competition, [I125]-NDP-α-MSH, hMC3-R membranes; remark: listed apart in the source
[28] = target: T4, MC1-R of B-16 mouse melanoma cells; assay: radioligand competition, [I125]-NDP-α-MSH, B-16 membranes; remark: listed apart in the source
[29] = target: T1, human melanocortin 4 receptor; assay: cell-based or functional assay; remark: listed apart in the source
[30] = target: T5, human melanocortin 5 receptor; assay: radioligand competition, [I125]-NDP-α-MSH, hMC5-R membranes; remark: listed apart in the source
[31] = target: T5, human melanocortin 5 receptor; assay: as above; remark: listed apart in the source
[32] = target: T1, human melanocortin 4 receptor; assay: cell-based or functional assay; remark: listed apart in the source
[33] = target: T1, human melanocortin 4 receptor; assay: radioligand competition, [I125]-NDP-α-MSH, hMC4-R membranes; remark: listed apart in the source
[34] = target: T4, MC1-R of B-16 mouse melanoma cells; assay: radioligand competition, [I125]-NDP-α-MSH, B-16 membranes; remark: listed apart in the source
[35] = target: T2, human melanocortin 3 receptor; assay: radioligand competition, [I125]-NDP-α-MSH, hMC3-R membranes; remark: listed apart in the source
[36] = target: T1, human melanocortin 4 receptor; assay: radioligand competition, [I125]-NDP-α-MSH, hMC4-R membranes; remark: listed apart in the source
[37] = target: T5, human melanocortin 5 receptor; assay: radioligand competition, [I125]-NDP-α-MSH, hMC5-R membranes; remark: listed apart in the source
[38] = target: T2, human melanocortin 3 receptor; assay: radioligand competition, [I125]-NDP-α-MSH, hMC3-R membranes; remark: listed apart in the source
[39] = target: T4, MC1-R of B-16 mouse melanoma cells; assay: radioligand competition, [I125]-NDP-α-MSH, B-16 membranes; remark: listed apart in the source
[40] = target: T1, human melanocortin 4 receptor; assay: cell-based or functional assay; remark: listed apart in the source
[41] = target: T4, MC1-R of B-16 mouse melanoma cells; assay: radioligand competition, [I125]-NDP-α-MSH, B-16 membranes; remark: listed apart in the source
[42] = target: T5, human melanocortin 5 receptor; assay: radioligand competition, [I125]-NDP-α-MSH, hMC5-R membranes; remark: listed apart in the source
[43] = target: T1, human melanocortin 4 receptor; assay: radioligand competition, [I125]-NDP-α-MSH, hMC4-R membranes; remark: listed apart in the source
[44] = target: T2, human melanocortin 3 receptor; assay: radioligand competition, [I125]-NDP-α-MSH, hMC3-R membranes; remark: listed apart in the source

T4 sequence (Q01727 whole entry): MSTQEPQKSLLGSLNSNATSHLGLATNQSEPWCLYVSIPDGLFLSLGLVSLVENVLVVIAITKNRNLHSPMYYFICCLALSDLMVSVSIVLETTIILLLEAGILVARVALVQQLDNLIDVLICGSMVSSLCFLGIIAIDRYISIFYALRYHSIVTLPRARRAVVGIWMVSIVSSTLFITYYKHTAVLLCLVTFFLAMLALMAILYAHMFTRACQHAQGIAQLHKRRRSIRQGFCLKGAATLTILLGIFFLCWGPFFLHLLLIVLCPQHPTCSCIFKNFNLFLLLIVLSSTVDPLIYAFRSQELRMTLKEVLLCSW
T3 sequence (Q01726 whole entry): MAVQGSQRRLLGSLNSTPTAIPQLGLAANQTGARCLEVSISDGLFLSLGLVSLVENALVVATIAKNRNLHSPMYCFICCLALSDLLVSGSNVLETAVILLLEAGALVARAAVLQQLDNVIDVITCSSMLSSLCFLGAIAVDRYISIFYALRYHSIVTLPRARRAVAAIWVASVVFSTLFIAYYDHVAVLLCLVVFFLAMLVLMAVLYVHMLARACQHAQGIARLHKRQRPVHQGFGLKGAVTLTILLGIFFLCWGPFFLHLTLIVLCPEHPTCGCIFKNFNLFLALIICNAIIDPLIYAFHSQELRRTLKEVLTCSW
T5 sequence (P33032 whole entry): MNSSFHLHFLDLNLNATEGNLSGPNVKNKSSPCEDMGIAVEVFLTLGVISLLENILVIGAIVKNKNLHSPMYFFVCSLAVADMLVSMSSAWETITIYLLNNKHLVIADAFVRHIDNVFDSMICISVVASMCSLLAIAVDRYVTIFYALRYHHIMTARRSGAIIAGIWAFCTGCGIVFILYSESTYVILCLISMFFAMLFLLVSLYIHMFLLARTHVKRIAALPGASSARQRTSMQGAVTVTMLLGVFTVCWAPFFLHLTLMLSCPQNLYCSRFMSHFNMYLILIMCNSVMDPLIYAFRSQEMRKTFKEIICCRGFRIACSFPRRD
T2 sequence (P41968 whole entry): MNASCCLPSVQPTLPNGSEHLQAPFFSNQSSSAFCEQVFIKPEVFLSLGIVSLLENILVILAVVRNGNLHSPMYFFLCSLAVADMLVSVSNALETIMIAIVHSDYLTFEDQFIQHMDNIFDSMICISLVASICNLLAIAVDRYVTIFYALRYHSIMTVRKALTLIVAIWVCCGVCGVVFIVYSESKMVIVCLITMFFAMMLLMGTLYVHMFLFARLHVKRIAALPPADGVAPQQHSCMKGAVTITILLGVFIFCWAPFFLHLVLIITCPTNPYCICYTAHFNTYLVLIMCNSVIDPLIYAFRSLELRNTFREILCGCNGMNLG
T1 sequence (P32245 whole entry): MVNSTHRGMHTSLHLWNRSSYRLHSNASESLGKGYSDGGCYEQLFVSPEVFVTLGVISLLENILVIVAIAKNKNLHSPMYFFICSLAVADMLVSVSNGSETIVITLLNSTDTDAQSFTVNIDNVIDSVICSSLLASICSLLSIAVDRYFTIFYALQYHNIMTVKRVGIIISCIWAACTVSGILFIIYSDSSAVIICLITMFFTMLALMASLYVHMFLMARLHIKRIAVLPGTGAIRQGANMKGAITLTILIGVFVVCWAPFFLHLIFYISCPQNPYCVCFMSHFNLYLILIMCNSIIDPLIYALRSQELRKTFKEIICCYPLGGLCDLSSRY

Ac-DH[dF]RWK-NHEt (lactam 1-6, also called Compound No. 40) [Ac-cyclo(-Asp-His-D-Phe-Arg-Trp-Lys)-NH-CH2-CH3]
Ki [1]: 6 nM
Ki [2]: 84 nM
Ki (human MC1-R): 0.52 nM
EC50 (nM) (cAMP), Low Receptor Density System [3]: 3.1 nM
EC50 (nM), normal system (cAMP) [4]: 3 nM
intrinsic activity, normal system (cAMP) [4]: 0.6
Ki [5]: 5 nM

B1: NH2-(CH2)6-C(=O)-Ser(Bzl)-D-Phe(4-Cl)-Arg-Trp-Asp-NH2 (peptide)
peptide: [Ahp][Ser(Bzl)][dPhe(4-Cl)]RWD-NH2
modifications: N-terminus assumed
SMILES: N=C(N)NCCC[C@H](NC(=O)[C@@H](Cc1ccc(Cl)cc1)NC(=O)[C@H](COCc1ccccc1)NC(=O)CCCCCCN)C(=O)N[C@@H](Cc1c[nH]c2ccccc12)C(=O)N[C@@H](CC(=O)O)C(N)=O
notes: also called Compound No. 13
Ki [6]: 180 nM
Ki [7]: 9 nM
Ki [8]: 760 nM
Ki [9]: 596 nM
EC50 (nM), normal system (cAMP) [4]: 568 nM
intrinsic activity, normal system (cAMP) [4]: 0.5
EC50 (nM) (cAMP), High Receptor Density System [10]: 34 nM

B2: NH2-(CH2)6-C(=O)-Ser(Bzl)-D-Phe(4-Cl)-Arg-Trp-Asp-Phe-NH2 (peptide)
peptide: [Ahp][Ser(Bzl)][dPhe(4-Cl)]RWDF-NH2
modifications: N-terminus assumed
SMILES: N=C(N)NCCC[C@H](NC(=O)[C@@H](Cc1ccc(Cl)cc1)NC(=O)[C@H](COCc1ccccc1)NC(=O)CCCCCCN)C(=O)N[C@@H](Cc1c[nH]c2ccccc12)C(=O)N[C@@H](CC(=O)O)C(=O)N[C@@H](Cc1ccccc1)C(N)=O
notes: also called Compound No. 14
Ki [11]: 242 nM
Ki [12]: 76 nM
Ki [13]: 5 nM
EC50, normal system (cAMP) [4]: 238 nM
intrinsic activity, normal system (cAMP) [4]: 0.5
EC50 (nM) (cAMP), High Receptor Density System [14]: 141 nM
Ki [15]: 405 nM

B3: Ac-Nle-cyclo(-Asp-Trp-D-Phe-Arg-Nal 1-Lys)-NH-CH2-CH3 (peptide)
peptide: Ac-[Nle]DW[dF]R[1Nal]K-NHEt
modifications: lactam 2-7
SMILES: CCCC[C@H](NC(C)=O)C(=O)N[C@H]1CC(=O)NCCCC[C@@H](C(=O)NCC)NC(=O)[C@H](Cc2cccc3ccccc23)NC(=O)[C@H](CCCNC(=N)N)NC(=O)[C@@H](Cc2ccccc2)NC(=O)[C@H](Cc2c[nH]c3ccccc23)NC1=O
notes: also called Compound No. 38
Ki [16]: 4.2 nM
Ki (human MC1-R): 30 nM
EC50 (nM) (cAMP), High Receptor Density System [17]: 10 nM
Ki [18]: 9 nM
Ki [19]: 77 nM
EC50 (nM), normal system (cAMP) [4]: 120 nM
intrinsic activity, normal system (cAMP) [4]: 0.6
Ki [20]: 47 nM

Ac-[Nle]DW[dF]R[1Nal]K-NMe2 (lactam 2-7, also called Compound No. 36) [Ac-Nle-cyclo(-Asp-Trp-D-Phe-Arg-Nal 1-Lys)-N(CH3)2]
Ki (human MC1-R): 39 nM
Ki [21]: 31 nM
Ki [22]: 12 nM
Ki [23]: 231 nM
EC50 (nM), normal system (cAMP) [4]: 272 nM
intrinsic activity, normal system (cAMP) [4]: 0.8
EC50 (nM) (cAMP), High Receptor Density System [24]: 4 nM
Ki [25]: 38 nM

B4: Ac-Nle-cyclo(-Asp-His-D-Phe-Arg-Nal 1-Lys)-NH-CH2-CH3 (peptide)
peptide: XDHFRXK
modifications: N-terminal acetyl; Nle at 1 (X); D-Phe at 4; Nal 1 at 6 (X); cyclo(Asp 2 to Lys 7); C-terminal ethylamide -NH-CH2-CH3
notes: also called Compound No. 39
Ki [26]: 2 nM
Ki (human MC1-R): 0.04 nM
Ki [27]: 28 nM
Ki [28]: 0.07 nM
EC50 (nM) (cAMP), High Receptor Density System [29]: 1.1 nM
EC50 (nM) (cAMP), Low Receptor Density System [29]: 10 nM
Ki [30]: 63 nM
EC50 (nM), normal system (cAMP) [4]: 0.2 nM
intrinsic activity, normal system (cAMP) [4]: 0.6

B5: Ac-Nle-cyclo(-Asp-His-D-Phe-Arg-Nal 1-Lys)-N(CH3)2 (peptide)
peptide: XDHFRXK
modifications: N-terminal acetyl; Nle at 1 (X); D-Phe at 4; Nal 1 at 6 (X); cyclo(Asp 2 to Lys 7); C-terminal dimethylamide -N(CH3)2
notes: also called Compound No. 37
Ki (human MC1-R): 0.08 nM
Ki [31]: 50 nM
EC50 (nM) (cAMP), High Receptor Density System [32]: 0.6 nM
EC50 (nM) (cAMP), Low Receptor Density System [32]: 2.1 nM
EC50 (nM), normal system (cAMP) [4]: 44 nM
intrinsic activity, normal system (cAMP) [4]: 0.7
Ki [33]: 5 nM
Ki [34]: 0.39 nM
Ki [35]: 111 nM

Ac-DW[d2Nal]R[2Nal]K-NHMe (lactam 1-6, also called Compound No. 35) [Ac-cyclo(Asp-Trp-D-Nal 2-Arg-Nal 2-Lys)-NH-CH3]
Ki [36]: 0.06 nM
Ki [37]: 6 nM
Ki [38]: 3 nM
Ki [39]: 643 nM

B6: NH2-(CH2)6-C(=O)-Ser(Bzl)-(D)Phe(4-Cl)-Arg-Trp-NH2 (peptide)
peptide: [Ahp][Ser(Bzl)][dPhe(4-Cl)]RW-NH2
modifications: N-terminus assumed
SMILES: N=C(N)NCCC[C@H](NC(=O)[C@@H](Cc1ccc(Cl)cc1)NC(=O)[C@H](COCc1ccccc1)NC(=O)CCCCCCN)C(=O)N[C@@H](Cc1c[nH]c2ccccc12)C(N)=O
notes: also called Compound No. 1
EC50 (nM) (cAMP), High Receptor Density System [40]: 21 nM
Ki [41]: 351 nM
Ki [42]: 208 nM
EC50 (nM) at MC4-R in a normal system (cAMP) [4]: 296 nM
intrinsic activity, normal system (cAMP) [4]: 0.32
Ki [43]: 3 nM
Ki [44]: 27 nM
